This series is described as follows: amyloid nucleation score (Sup35N fusion, yeast selection) (log enrichment); library NNK2; higher = more nucleation; inactive = no reads after selection. The procedure, abridged: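 The nucleation score is the log enrichment of output over input reads, calculated with DiMSum and centred on the mode score of non-aggregating sequences. Sequences with under 100 input reads were excluded. Reads came from Illumina sequencing of plasmid inserts from psi-negative yeast expressing Sup35N fused to peptides of 20 random codons, induced 24 hours with 100 μM copper sulfate and grown 7 days at 30°C without adenine and uracil.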

± gives the uncertainty stated by the source.

The substance HNSCVSITSKLQCPLRTVSG showed an amyloid nucleation score of 0.252 ± 0.65.

The substance RFCSMSLSWNYDSC displayed an amyloid nucleation score of 5.5 ± 0.079. Next, FWVVIVAHSVSWLLLTWQLE: 0.553 ± 0.65; VAVISDWGWQNWMSVVGVGH: “inactive”.

Turning to NNRHLSPVVRSY, the amyloid nucleation score result was “inactive”. Next, CFAVAKEWLNAAVHGVGQFP: 0.123 ± 0.38; MVHTKYPLWSNSRVLWDSVT: 0.397 ± 0.64. Regarding CRCISVPCVVFVV, the amyloid nucleation score was -0.142 ± 0.79.

In turn, TPVYPRRSIVLICSISMLRK displayed an amyloid nucleation score of 4.12 ± 0.064. The same measure for AVLPSIDYGCEPRL: 0.136 ± 0.5. The same measure for TDQDT: 0.516 ± 0.32. Next, RVDCPYSGNVLTRVGNRCWA: 0.729 ± 0.25; VHLTGSCHPNYSGVGKCMVI: 0.168 ± 0.49.

For the substance LLCNWSPTLRHYFMRWDLGC, the amyloid nucleation score is -0.901 ± 0.36.

For YSLVLYWMWNCYRNRLDSGF, the amyloid nucleation score is -0.185 ± 0.63. IAFFGLCMSRVSLGVLEMRL registered an amyloid nucleation score of 2.21 ± 0.18.

Regarding YRVRCLHWHLIFDCNKKRSK, the amyloid nucleation score was -0.331 ± 1.1. Next, YMTWQFITACMLTCSKSILS: 0.264 ± 0.49; IHVPIQ: -0.046 ± 0.54; SERFDRAY: -1.2 ± 0.42.

Regarding FKRSTCNLR, the amyloid nucleation score was -0.479 ± 0.29. Next, YSGRSAWLMLCGRPVRR: 1.11 ± 0.33. The same measure for SKYGMFILGNRSNGDWFNMV: -0.673 ± 0.48; for SSSALEANINQSMEDIKEAF: -0.427 ± 1.1. The same measure for RCLPISTIVF: 2.43 ± 0.16; for WNVMHI: 0.358 ± 0.64; for NWQVPKVFQVLNYA: 0.054 ± 0.79. As for RLLSGCLFGGSRA, the amyloid nucleation score was -0.623 ± 0.76. Next, YAMCTWSV: 1.88 ± 0.13; VWYFIDFGPRKISVITWRYS: -0.642 ± 0.78; YLLPSVTSVTY: 0.993 ± 0.29. The same measure for DSSYG: 0.285 ± 0.74; for VRITVSSSLALWLVWLSHYR: -0.167 ± 0.27; for PGMPARVHTCLSAMTYNFMC: -0.901 ± 0.44.

Turning to NTRNDWQS, the amyloid nucleation score stood at 2.13 ± 0.15. Next, NVFTNTLVN: 8.667 ± 0.081. The same measure for YLYSPLVMSSHYMLFT: 5.125 ± 0.048; for LSRNYFVSVLFFSTVRMALA: -0.433 ± 0.54. Next, VHPGMNLDMSNACSAFVRTW: -0.631 ± 1; CCHHR: 1.08 ± 0.28; GNSYNVKTYTNLVGIIMDKA: “inactive”. RFTFFAGAS showed an amyloid nucleation score of 0.367 ± 0.21. The same measure for DSLTQILTVSCVCYEESMRI: -0.613 ± 0.48; for VAWITLMIPHIYFQSGILWD: -1 ± 0.25. Next, YCGLVWVSKYSVTRAFRRNV: -0.297 ± 0.39.

In turn, SVCELKW gave an amyloid nucleation score of 0.53 ± 0.38.

On to LVFNVLNRFKSARSSRCAGS, for which the amyloid nucleation score is -1.14 ± 0.61. The same measure for IDKGSKVFTGLGLLFCSKYF: 7.2 ± 0.074; for VRFNGLVR: “inactive”. The same measure for LGFDFSNVKRTGRVTFFDCM: -0.1 ± 0.35.

With YFQKGFDVARIHLSFTLVLY, the amyloid nucleation score was -0.913 ± 1. Next, RYHDLGI: -0.093 ± 0.2; RLYVTSYIY: 3.26 ± 0.098; LFLQGRNQLDTHWFCPACPM: -0.727 ± 0.55. Next, WNYITVDISQLNLPGVAMGW: 3.45 ± 0.097. Next, VQVVLNSETSSCASLRCMTY: 8.047 ± 0.029. In the case of NCSLCFENGMAYFCILIEGV, the amyloid nucleation score came to 5.645 ± 0.043. YFELNLNVKRRGGKWYYSLI registered an amyloid nucleation score of 1.16 ± 0.27.

Regarding FSMLRVYHLRPDLRVFCCAF, the amyloid nucleation score was -0.108 ± 1.1.

As to VFRFNFLRGLKIQVLSRFGW, the amyloid nucleation score was -0.067 ± 1.1.

For the substance WKALAS, the amyloid nucleation score worked out at 1.74 ± 0.11. Next, GVENKDRVSPNYVG: -0.424 ± 0.49; ESDLVLGRVR: 0.69 ± 0.49; DWWSDDSRLGNLLRFSKRSF: -0.636 ± 0.76. The same measure for MNIVVYVHLGVSAQVSMAHR: 8.407 ± 0.041; for LWPCSCFVRRCYECFEGDAG: 3.2 ± 0.057. The same measure for KVINFGCTTFDYGYATYFGQ: 6.66 ± 0.055; for EGIILFRKDRELTGGRLTNV: -0.145 ± 1.1; for FSFEWMFWGWTCNQGTDVVS: -0.319 ± 0.54. In the case of TASPSILTSKVTRYNLTVGC, the amyloid nucleation score was -0.072 ± 0.5. Next, KKNEIEVECGPNCGTGTLVF: 5.04 ± 0.054. Next, IYIAKW: -0.656 ± 0.33; KGSGRSQLSSIVCVFFGQTV: -0.292 ± 0.49. In the case of DACAFVCLYWNVLTRFELMP, the amyloid nucleation score was -0.458 ± 0.32. The same measure for ECHANASFFLCRGAERSACG: 0.783 ± 0.58. On to VYFDNGISK, for which the amyloid nucleation score is -1.6 ± 1.1. As for LIQFDTISSLYP, the amyloid nucleation score was -0.271 ± 0.63. For MGCDGVSVLRWCTHIELGME, the amyloid nucleation score was -0.782 ± 0.31. Next, YCHALARLSGFL: 0.127 ± 0.27; GTARDGRYSSMKVSDRYFVR: “inactive”; HYCRHLLVLHSSKYARSHSS: -0.338 ± 0.37. The same measure for YKLAWARYGCIAVCTMLRFP: 0.102 ± 1.1; for FTWLRPRGFS: -0.676 ± 0.27. The same measure for YPNSLYFRPYAFILTEMSHH: “inactive”; for CPVSAASLSNLFDVAHNGVR: 5.354 ± 0.035. Turning to WKHMSRR, the amyloid nucleation score was found to be 0.639 ± 0.66. The same measure for LRYKGMRFLNWMRNLKWDGI: 0.022 ± 0.65; for MFASNLRKMSGGGVI: -0.694 ± 1.1. Next, KNSIDQVTWTCNRYLKLVLS: -0.402 ± 0.39.

As for YRFYSLRMYKFWWLTLTLCL, the amyloid nucleation score is -1.12 ± 1.1. The same measure for GLRTK: 0.622 ± 0.41; for HRLQLPHHRKGKWVLLMWGV: -0.44 ± 0.41. Next, YYDFVVNGGDGLSIEYNSRG: 0.405 ± 0.74; RLMDGYSSV: 0.548 ± 0.29; TCAGIV: 0.408 ± 0.41. VYMCFSPVVNIMTVISFLAR showed an amyloid nucleation score of 5.23 ± 0.093. The same measure for QFCSDCV: -0.9 ± 0.76. In the case of DSFSSWYDFQFVWSVTVNRM, the amyloid nucleation score result is “inactive”. Next, WIMSVGTAKWRDGQPSACRK: 3.46 ± 0.13; LRVMYHFNQCQFSYLRDFGR: 8.38 ± 0.063; IFVLNKQNYLRIYNVPPLLI: 5.667 ± 0.05. Next, SRHVLSKRFRWYT: 0.196 ± 0.26.

In the case of IFGLNHWTVFSSPINLSTSG, the amyloid nucleation score entry is “inactive”. The same measure for QGLMIVINGSSYYVYVCLKG: 1.09 ± 0.12.

On to RTSRVVIKILDPFQFVMLFI, for which the amyloid nucleation score was -0.211 ± 0.49.

Consider LSGLVFIN, for which the amyloid nucleation score is -0.053 ± 1. The same measure for NTGFTLMGCWPMYYCWSFSW: -0.073 ± 1; for PYLFMESMKD: 0.117 ± 0.79. Regarding TDITKVSGTFNHSMEPIWYT, the amyloid nucleation score result was “inactive”. Next, HCCHRFYMDSEIACTCFTTM: -0.523 ± 0.56; PALCVNAVTKIDRNNCYDNG: 3.92 ± 0.064; RTGRRSAFCTSVRRLNPDCL: 1.17 ± 0.41. Next, TYLKHVRKS: 1.11 ± 0.24; FSGFYLWSVDFVMLLGAWAH: “inactive”. The same measure for FSLICIKIHEKGWQGEG: 4.17 ± 0.065; for LEQKVIIRCCPN: 0.091 ± 0.18; for KFGLPREYNSSVPVGPASCL: 0.272 ± 0.41. As to IEQFTVNLLTRRLKNSMGQN, the amyloid nucleation score is -0.544 ± 0.79. The same measure for SFVVWTPWLSPSYACPRQIF: -0.124 ± 0.76. Turning to YWTNPYEMFISHYNKVFAFF, the amyloid nucleation score was -0.436 ± 1.1. The same measure for SVVEEKIGEFTWSWDTDSAN: 0.568 ± 0.66; for CLAFNFVFIHPSTGAFSRTS: 8.38 ± 0.072; for DLITLMKSAIPQPNMRLNSL: 0.105 ± 0.57. HNLNKTGDKRFYTLFVSSPR returned an amyloid nucleation score of 0.012 ± 1. The same measure for AVATGNTCSPVSVRKSLGQS: 1.87 ± 0.13; for VTQRWLAFERWKLPCSLPSH: 0.02 ± 0.79; for YSFFIIVSALIGRWAS: -0.894 ± 1.1. Next, DDIKIWFRATVHVVF: “inactive”.

QIIRPCVRRDKTGFIALVMG: the amyloid nucleation score turned out to be 1.27 ± 0.49. The same measure for GRRLSGILRRDGGANGCHRR: 0.098 ± 0.42. Regarding YVNFIVFTDMIWDS, the amyloid nucleation score stood at 4.94 ± 0.09. The same measure for ESFARFIAM: -0.033 ± 0.55; for DLQSRDYPMADIVHIGIQRH: -0.754 ± 0.34; for LYIHVDWLAWKTHVRQTKVT: -0.455 ± 1.1. The same measure for VSGDRLPSLFTCVRLLI: 0.492 ± 0.41. The same measure for RTYILYSDFGCRRCDY: 3.56 ± 0.1; for YWCFAI: -0.349 ± 0.26; for ILIRLLTKVLTMLNDMH: 0.136 ± 0.65.

The substance FVLSTVRLSAASAPMRFTHL displayed an amyloid nucleation score of 0.468 ± 0.74. Next, FRLPNVLRDGSA: 1.41 ± 0.41.

Values taken from the supplement of paper PMC12042874.
